Numbering of substitutions follows the chain as printed. Numbers in names are those of the source.
B1: HVEMΔCD:GFP (protein)
chain: LPSCKEDEYPVGSECCPKCSPGYRVKEACGELTGTVCEPCPPGTYIAHLNGLSKCLQCQMCDPAMGLRASRNCSRTENAVCGCSPGHFCIVQDGDHCAACRAYATSSPGQRVQKGGTESQDTLCQNCPPGTFSPNGTLEECQHQTKCSWLVTKAGAGTSSSHWV
B2: Fas ligand (trimerized) (protein)
chain: PSPPPEKKELRKVAHLTGKSNSRSMPLEWEDTYGIVLLSGVKYKKGGLVINETGLYFVYSKVYFRGQSCNNLPLSHKVYMRNSKYPQDLVMMEGKMMSYCTTGQMWARSSYLGAVFNLTSADHLYVNVSELSLVNFEESQTFFGLYKL
B3: p60ΔCD K32A (protein)
chain: LVPHLGDREKRDSVCPQGKYIHPQNNSICCTACHKGTYLYNDCPGPGQDTDCRECESGSFTASENHLRHCLSCSKCRKEMGQVEISSCTVDRDTVCGCRKNQYRHYWSENLFQCFNCSLCLNGTVHLSCQEKQNTVCTCHAGFFLRENECVSCSNCKKSLECTKLCLPQIENVKGTEDSGTT
B4: p60ΔCD KY19/20AA (protein)
chain: B3 chain with K19A, Y20A, A32K
B5: Fas deletion 1-43 (protein)
chain: QVTDINSKGLELRKTVTTVETQNLEGLHHDGQFCHKPCPPGERKARDCTVNGDEPDCVPCQEGKEYTDKAHFSSKCRRCRLCDEGHGLEVEINCTRTQNTKCRCKPNFFCNSTVCEHCDPCTKCEHGIIKECTLTSNTKCKEEGSRSN
B6: Fas deletion 1-66 (protein)
chain: B5 chain

What was measured:
[1] = biological target: T1, Fas (human, UniProt P25445); assay: other (co-immunoprecipitation)
T1 chain: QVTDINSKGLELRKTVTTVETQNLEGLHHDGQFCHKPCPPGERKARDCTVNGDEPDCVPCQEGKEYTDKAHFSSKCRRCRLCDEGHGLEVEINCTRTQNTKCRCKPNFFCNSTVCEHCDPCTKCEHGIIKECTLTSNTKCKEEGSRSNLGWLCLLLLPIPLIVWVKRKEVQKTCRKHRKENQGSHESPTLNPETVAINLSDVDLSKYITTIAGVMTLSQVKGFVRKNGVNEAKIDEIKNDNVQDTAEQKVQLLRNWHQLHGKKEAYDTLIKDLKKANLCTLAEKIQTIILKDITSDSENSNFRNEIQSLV

[2] = biological target: B6; assay: FACS
[3] = biological target: T2, Fas Pt 2 (deletion 52-96) (human, UniProt P25445); assay: FACS
T2 chain: B5 chain

[4] = biological target: T3, p60ΔCD-GFP-HA (human, UniProt P19438); assay: other (co-immunoprecipitation)
T3 chain: B3 chain with A32K

[5] = biological target: T4, HA-Fas 1-210:GFP (human, UniProt P25445); assay: other (co-immunoprecipitation)
T4 chain: B5 chain

Binder | binding result [4] | binding result [5] | further results
B1 | – | – | binding result [1]: no binding
B2 | – | – | binding result [2]: no binding; binding result [3]: no binding
B3 | no binding | – | –
B4 | no binding | – | –
B5 | – | no binding | –
B6 | – | no binding | –

Reference: patent publication US9051392 (dated 2015)
